Experimental data as given in PMC12070368 (ACS Applied Nano Materials, 2025).

Molecular target: T1, Ebolavirus glycoprotein (EGP) of the Zaire strain (Zaire ebolavirus, UniProt Q05320 33-650)
T1 sequence: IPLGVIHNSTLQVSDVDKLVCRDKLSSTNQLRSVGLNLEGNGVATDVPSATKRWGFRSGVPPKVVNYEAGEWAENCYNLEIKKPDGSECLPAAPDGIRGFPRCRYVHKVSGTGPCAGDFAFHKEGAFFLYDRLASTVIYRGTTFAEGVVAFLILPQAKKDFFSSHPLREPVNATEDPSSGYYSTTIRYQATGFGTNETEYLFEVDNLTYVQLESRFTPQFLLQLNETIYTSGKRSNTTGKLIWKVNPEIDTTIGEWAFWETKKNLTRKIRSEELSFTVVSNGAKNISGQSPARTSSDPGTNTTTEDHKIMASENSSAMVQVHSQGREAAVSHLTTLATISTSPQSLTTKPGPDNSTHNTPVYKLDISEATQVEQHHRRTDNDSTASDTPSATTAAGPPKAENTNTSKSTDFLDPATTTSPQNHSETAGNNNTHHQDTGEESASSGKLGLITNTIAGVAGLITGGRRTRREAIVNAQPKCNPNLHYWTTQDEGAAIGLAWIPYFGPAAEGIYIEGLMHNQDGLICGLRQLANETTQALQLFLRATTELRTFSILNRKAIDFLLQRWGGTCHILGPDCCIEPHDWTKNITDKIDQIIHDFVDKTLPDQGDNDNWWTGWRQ
Conditions: both partners purified

B1: TIM-1 (receptor, UniProt Q96D42 21-295, looked up)
chain: SVKVGGEAGPSVTLPCHYSGAVTSMCWNRGSCSLFTCQNGIVWTNGTHVTYRKDTRYKLLGDLSRRDVSLTIENTAVSDSGVYCCRVEHRGWFNDMKITVSLEIVPPKVTTTPIVTTVPTVTTVRTSTTVPTTTTVPMTTVPTTTVPTTMSIPTTTTVLTTMTVSTTTSVPTTTSIPTTTSVPVTTTVSTFVPPMPLPRQNHEPVATSPSSPQPAETHPTTLQGAIRREPTSSPLYSYTTDGNDTVTESSDGLWNNNQTQLFLEHSLLTANTTKG
B1 was tested, and the ΔSPR was 35 nm.
